This assay has as its target YFP-PP1γ (UniProt P36873). In words: live-cell FRET at kinetochores (FRET/CFP intensity ratio). The settings on record: HeLa cells, MG132 for 1 hr before imaging, 37°C; Cells = 6, Area KT = 42 (4A) and 50 (WT); parent: est. 1.6; read off a plot.
UniProt P36873, sequence (P36873 whole entry): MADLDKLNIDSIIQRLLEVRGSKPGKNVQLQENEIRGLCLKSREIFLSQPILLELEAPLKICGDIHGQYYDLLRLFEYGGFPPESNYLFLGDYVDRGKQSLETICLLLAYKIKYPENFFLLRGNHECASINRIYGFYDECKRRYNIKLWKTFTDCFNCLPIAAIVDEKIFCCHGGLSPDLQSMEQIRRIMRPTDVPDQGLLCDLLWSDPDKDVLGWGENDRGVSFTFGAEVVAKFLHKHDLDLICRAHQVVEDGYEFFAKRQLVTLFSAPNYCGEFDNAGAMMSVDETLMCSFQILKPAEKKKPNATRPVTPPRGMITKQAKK

Consider “Astrin-CFP (WT) (from UniProt Q96R06) 4A (RVMF motif changed to AAAA)”, for which the response amounted to 1.2.

These data come from article PMC6930079.
